Three molecules from article PMC3547832, “Secondary Metabolism and Development Is Mediated by LlmF Control of VeA Subcellular Localization in Aspergillus nidulans” (PLoS Genetics, 2013) can be followed below.

The target in experiment [1] is LaeA (Aspergillus nidulans, UniProt C8VQG9). The note with it: labelled compound; room temperature, UV on ice 30 min; GST-LaeA.
The target of experiment [2] is T1, His6-VeA-S-tag (recombinant) (Aspergillus nidulans, UniProt C8VTV4 1-573).
T1 construct: VeA, Aspergillus nidulans; E. coli codon-optimized version obtained from Reinhard Fischer, EcoRI-XhoI fragment in pRSF-1b; source: E. coli BL21 (λDE3), purified (Ni-NTA); not shown: His6, N-terminal, kept; S-tag, C-terminal, kept
T1 sequence (looked up): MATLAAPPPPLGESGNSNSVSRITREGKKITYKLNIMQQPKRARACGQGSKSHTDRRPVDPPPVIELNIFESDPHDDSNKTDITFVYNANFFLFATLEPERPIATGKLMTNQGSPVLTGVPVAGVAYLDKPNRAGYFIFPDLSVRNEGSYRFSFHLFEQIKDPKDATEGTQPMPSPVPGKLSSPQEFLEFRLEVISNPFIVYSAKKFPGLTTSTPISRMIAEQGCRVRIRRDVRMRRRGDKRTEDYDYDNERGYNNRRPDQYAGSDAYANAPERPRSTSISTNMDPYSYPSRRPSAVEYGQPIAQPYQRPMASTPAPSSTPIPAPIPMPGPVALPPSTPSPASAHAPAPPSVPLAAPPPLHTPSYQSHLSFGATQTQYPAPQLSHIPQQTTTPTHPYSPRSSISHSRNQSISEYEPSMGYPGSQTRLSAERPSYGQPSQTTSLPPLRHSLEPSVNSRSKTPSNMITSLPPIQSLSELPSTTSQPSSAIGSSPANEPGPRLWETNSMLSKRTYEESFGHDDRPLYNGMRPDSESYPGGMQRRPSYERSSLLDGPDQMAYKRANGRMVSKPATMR
In words: pull-down; 10 µg purified GST tagged protein, glutathione sepharose and purified His6-VeA-S-tag, 3 hours at 4°C in PBS buffer with 1 mM DTT, pH 7.3; anti-S-tag immunoblot. Particulars: both partners purified.

For the molecule `C[S+](CC[C@H](N)C(=O)O)C[C@H]1O[C@@H](n2cnc3c(N)ncnc32)[C@H](O)[C@@H]1O` (stereo partly drawn) [S-adenosyl methionine], the “UV crosslinking of 3H-SAM, SDS-PAGE and tritium phosphor screen” value in experiment [1] is “these results indicate that both LaeA and LlmF have the ability to bind SAM”.

B1: GST-VelB (recombinant) (natural protein, Aspergillus nidulans, UniProt C8VTS4 1-369, looked up)
chain: MYAVEDRAHSGHHPPPLSMDRIPPPSTMYPSSAGPSAMVSPAGQPEPESLSTVHDGRIWSLQVVQQPIRARMCGFGDKDRRPITPPPCIRLIVKDAQTQKEVDINSLDSSFYVVMADLWNADGTHEVNLVKHSATSPSISTAMSSSYPPPPHPTSSDYPASYQTNPYGQPVGQPVGQPVGYAGVGNYYGGSTQLQYQNAYPNPQAQYYQPMYGGMAQPQMPAAQPVTPGPGGMFTRNLIGCLSASAYRLYDTEDKIGVWFVLQDLSVRTEGIFRLKFSFVNVGKSVSDLPQSDIAEVINKGTAPILASTFSEPFQVFSAKKFPGVIESTPLSKVFANQGIKIPIRKDGVKGQGSRGRHSDEDDGLDNEY
notes: VelB, Aspergillus nidulans; GST fusion in pGEX; source: E. coli BL21 (λDE3), purified (glutathione sepharose 6B)
B1: the binding result in experiment [2] is “binds”.

B2: GST-LaeA (recombinant) (natural protein, Aspergillus nidulans, UniProt C8VQG9 1-374, looked up)
chain: MFEMGPVGTRLPAMTSPAHNHYSYHSPTSSDRGRSRQNSDAMDIQSITEREPATRYAVAGGPAPWNRNGSPSMSPMYSNNSERNQFHEENGRTYHGFRRGMYFLPCDEQEQDRLDIFHKLFTVARVSESLIYAPHPTNGRFLDLGCGTGIWAIEVANKYPDAFVAGVDLAPIQPPNHPKNCEFYAPFDFEAPWAMGEDSWDLIHLQMGCGSVMGWPNLYRRIFAHLRPGAWFEQVEIDFEPRCDDRSLDGTALRHWYDCLKQATAETMRPIAHSSRDTIKDLQDAGFTEIDHQIVGLPLNPWHQDEHERKVARWYNLAVSESIENLSLAPFSRVYRWPLERIQQLAADVKSEAFNKEIHAYNILHIYQARKPLR
notes: LaeA, Aspergillus nidulans, locus AN0807; GST fusion in pGEX; source: E. coli BL21 (λDE3), purified (glutathione sepharose 6B)
In the case of B2, the binding result in experiment [2] was “binds”.
